Measured values reported in publication PMC7876108, “Cryo-EM structures of engineered active bc1-cbb3 type CIII2CIV super-complexes and electronic communication between the complexes” (Nature Communications, 2021).

B2: cytochrome b, subunit of CIII2 (natural protein, Rhodobacter capsulatus)
chain: MSGIPHDHYEPKTGIEKWLHDRLPIVGLVYDTIMIPTPKNLNWWWIWGIVLAFTLVLQIVTGIVLAMHYTPHVDLAFASVEHIMRDVNGGWAMRYIHANGASLFFLAVYIHIFRGLYYGSYKAPREITWIVGMVIYLLMMGTAFMGYVLPWGQMSFWGATVITGLFGAIPGIGPSIQAWLLGGPAVDNATLNRFFSLHYLLPFVIAALVAIHIWAFHTTGNNNPTGVEVRRTSKADAEKDTLPFWPYFVIKDLFALALVLLGFFAVVAYMPNYLGHPDNYVQANPLSTPAHIVPEWYFLPFYAILRAFAADVWVVILVDGLTFGIVDAKFFGVIAMFGAIAVMALAPWLDTSKVRSGAYRPKFRMWFWFLVLDFVVLTWVGAMPTEYPYDWISLIASTYWFAYFLVILPLLGATEKPEPIPASIEEDFNSHYGNPAE
notes: cytochrome b (petB), Rhodobacter capsulatus; also called cyt b; PetB

Legend:
[1] = target: B2; assay: cryo-EM structure; purified bipartite SC mixed with 5-fold molar excess of purified cyt cy; map SC-2A, 5.2 A; models fitted as rigid bodies; conditions: both partners purified
[2] = target: T1, cytochrome cy, full length (membrane-anchored) (Rhodobacter capsulatus, UniProt Q05389 1-199); assay: cross-linking; XL-MS: cyt cy with CIII2CIV, DMTMM; conditions: both partners purified
T1 construct: cytochrome cy (cycY), Rhodobacter capsulatus: 30-residue TMH, 69-residue linker, 100-residue cyt c domain; Only its TMH is resolved in map SC-2A; also called cyt cy; intact cyt cy; source: purified
T1 sequence (looked up): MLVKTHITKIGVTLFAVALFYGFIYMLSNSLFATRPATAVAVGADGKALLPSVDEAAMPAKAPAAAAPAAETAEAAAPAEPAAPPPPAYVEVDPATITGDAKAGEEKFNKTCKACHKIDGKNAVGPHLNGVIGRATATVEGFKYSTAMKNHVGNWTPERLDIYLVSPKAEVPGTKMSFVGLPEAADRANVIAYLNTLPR

[3] = target: the molecule itself; assay: cryo-EM structure; purified bipartite SC mixed with 5-fold molar excess of purified cyt cy; map SC-2A, 5.2 A; models fitted as rigid bodies
[4] = target: T2, cytochrome c1, subunit of bc1-type CIII2 (Rhodobacter capsulatus, UniProt D5ANZ4 22-279); assay: cryo-EM structure; native CIII2 particles in the bipartite SC + cy samples; maps CIII2 (3.3 A), CIII2 c-c (3.8 A), b-c (4.2 A), b-b (3.5 A); conditions: both partners purified
T2 construct: cytochrome c1 (petC), Rhodobacter capsulatus; Stood within the CIII2 complex (FeS protein, cyt b, cyt c1; a dimer) in the cross-linking and in the cryo-EM maps of native CIII2; also called cyt c1; PetC; source: native CIII2 particles in the bipartite SC + cy sample
T2 sequence (looked up): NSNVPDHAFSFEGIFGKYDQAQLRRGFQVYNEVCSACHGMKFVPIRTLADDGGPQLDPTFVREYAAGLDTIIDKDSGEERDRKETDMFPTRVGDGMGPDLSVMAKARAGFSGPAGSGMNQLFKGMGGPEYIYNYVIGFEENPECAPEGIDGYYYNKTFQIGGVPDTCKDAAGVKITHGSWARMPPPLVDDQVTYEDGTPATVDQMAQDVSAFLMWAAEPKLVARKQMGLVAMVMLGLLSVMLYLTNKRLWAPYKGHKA

[5] = target: B2; assay: as above; conditions: both partners purified
[6] = target: T3, CcoP, subunit of cbb3-type CIV (Rhodobacter capsulatus, UniProt D5ARP7 1-297); assay: cross-linking; XL-MS: 300 ug purified cbb3-type CIV with 2-fold molar excess of cyt c2, 20 mM DMTMM, 1 h, room temperature, low salt (20 mM Na-phosphate pH 7.4, 1 mM NaCl, 0.01% DDM); conditions: both partners purified
T3 construct: CcoP subunit of the cbb3-type CIV, Rhodobacter capsulatus; Stood within purified CIV in the cross-linking
T3 sequence (looked up): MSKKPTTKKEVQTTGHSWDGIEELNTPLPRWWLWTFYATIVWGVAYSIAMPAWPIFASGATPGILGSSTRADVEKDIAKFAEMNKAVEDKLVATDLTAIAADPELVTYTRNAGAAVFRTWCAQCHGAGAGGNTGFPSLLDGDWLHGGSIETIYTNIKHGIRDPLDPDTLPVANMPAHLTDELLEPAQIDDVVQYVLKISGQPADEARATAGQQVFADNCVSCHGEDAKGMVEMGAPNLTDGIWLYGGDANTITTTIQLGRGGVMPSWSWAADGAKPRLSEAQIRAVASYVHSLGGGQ

[7] = target: T2, cytochrome c1, subunit of bc1-type CIII2; assay: cross-linking; XL-MS: 300 ug purified bc1-type CIII2 with 2-fold molar excess of cyt c2, 20 mM DMTMM, 1 h, room temperature, low salt (20 mM Na-phosphate pH 7.4, 1 mM NaCl, 0.01% DDM); conditions: both partners purified

B1: cyt c1-CcoP fusion subunit of the bipartite SC (His8) (other, Rhodobacter capsulatus, UniProt D5ANZ4 22-279, looked up)
chain: NSNVPDHAFSFEGIFGKYDQAQLRRGFQVYNEVCSACHGMKFVPIRTLADDGGPQLDPTFVREYAAGLDTIIDKDSGEERDRKETDMFPTRVGDGMGPDLSVMAKARAGFSGPAGSGMNQLFKGMGGPEYIYNYVIGFEENPECAPEGIDGYYYNKTFQIGGVPDTCKDAAGVKITHGSWARMPPPLVDDQVTYEDGTPATVDQMAQDVSAFLMWAAEPKLVARKQMGLVAMVMLGLLSVMLYLTNKRLWAPYKGHKASKKPTTKKEVQTTGHSWDGIEELNTPLPRWWLWTFYATIVWGVAYSIAMPAWPIFASGATPGILGSSTRADVEKDIAKFAEMNKAVEDKLVATDLTAIAADPELVTYTRNAGAAVFRTWCAQCHGAGAGGNTGFPSLLDGDWLHGGSIETIYTNIKHGIRDPLDPDTLPVANMPAHLTDELLEPAQIDDVVQYVLKISGQPADEARATAGQQVFADNCVSCHGEDAKGMVEMGAPNLTDGIWLYGGDANTITTTIQLGRGGVMPSWSWAADGAKPRLSEAQIRAVASYVHSLGGGQ
notes: cytochrome c1 (petC), Rhodobacter capsulatus; stop codon eliminated, no linker to CcoP; CcoP subunit of the cbb3-type CIV, Rhodobacter capsulatus; start codon eliminated; About 65 kDa; Stood within the bipartite SC; also called petC::ccoP-His8; source: R. capsulatus pYO76/YO12, subunit of the purified bipartite SC; not shown: His8, C-terminal, kept
binding result [1]: binds
binding result [2]: binds

B2
binding result [3]: binds

B3: Rieske FeS protein, subunit of CIII2 (natural protein, Rhodobacter capsulatus)
chain: MSHAEDNAGTRRDFLYHATAATGVVVTGAAVWPLINQMNASADVKAMASIFVDVSAVEVGTQLTVKWRGKPVFIRRRDEKDIELARSVPLGALRDTSAENANKPGAEATDENRTLPAFDGTNTGEWLVMLGVCTHLGCVPMGDKSGDFGGWFCPCHGSHYDSAGRIRKGPAPRNLDIPVAAFVDETTIKLG
notes: Rieske FeS protein (petA), Rhodobacter capsulatus; TMH residues 11-49, external domain (ED) residues 50-191 in the model; also called PetA; FeS-ED (its external domain); source: R. capsulatus pYO76/YO12, subunit of the purified bipartite SC and of the native CIII2 particles in that sample
binding result [4]: binds
binding result [5]: binds
binding result [2]: binds

B4: cytochrome c2 (natural protein, Rhodobacter capsulatus, UniProt P00094 22-137, looked up)
chain: GDAAKGEKEFNKCKTCHSIIAPDGTEIVKGAKTGPNLYGVVGRTAGTYPEFKYKDSIVALGASGFAWTEEDIATYVKDPGAFLKEKLDDKKAKTGMAFKLAKGGEDVAAYLASVVK
notes: soluble cytochrome c2, Rhodobacter capsulatus; also called cyt c2; source: purified R. capsulatus cyt c2
binding result [6]: binds
binding result [7]: binds
